Laboratory results published in IntAct's records for PubMed 12620189.

B1: SCOCO-like protein 1 (Saccharomyces cerevisiae), Q3E784 (parent)
chain: MSAENISTGSPTGKQPSSEVNLGEREAGTKNERMMRQTKLLKDTLDLLWNKTLEQQEVCEQLKQENDYLEDYIGNLMRSSNVLEK
partner: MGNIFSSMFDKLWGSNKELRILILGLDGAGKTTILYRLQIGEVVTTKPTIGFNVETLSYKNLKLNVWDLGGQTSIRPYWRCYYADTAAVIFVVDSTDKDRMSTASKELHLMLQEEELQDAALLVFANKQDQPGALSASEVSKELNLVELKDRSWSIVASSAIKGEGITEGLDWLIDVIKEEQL

Variants of: B1
Settings: with arl1_yeast ARL1, P38116

Row | effect of a mutation on the interaction | Variant
1 | disrupting interaction | Y72A
